To fix the notation:
B1: sFlt-1(3) G26C (receptor)
chain: CSKLKDPELSLKGTQHIMQAGQTLHLQCRGEAAHKWSLPEMVSKESERLSITKSACGRNGKQFCSTLTLNTAQANHTGFYSCKYLAVPTSKKKETESAIYIFISDTGRPFVEMYSEIPEIIHMTEGRELVIPCRVTSPNITVTLKKFPLDTLIPDGKRIIWDSRKGFIISNATYKEIGLLTCEATVNGHLYKTNYLTHRQTNTIIDVQISTPRPVKLLRGHTLVLNCTATTPLNTRVQMTWSYPDEKNKRASVRRRIDQSNSHANIFYSVLTIDKMQNKDKGLYTCRVRSGPSFKSVNTSVHIYDKAFITVKH
B2: 20 kDa-Cys-Flt-1(3) G26C (receptor)
chain: B1 chain
modifications: 20 kDa maleimide-PEG on Cys 26
B3: Wild type sFlt-1(fl) (receptor)
chain: SKLKDPELSLKGTQHIMQAGQTLHLQCRGEAAHKWSLPEMVSKESERLSITKSACGRNGKQFCSTLTLNTAQANHTGFYSCKYLAVPTSKKKETESAIYIFISDTGRPFVEMYSEIPEIIHMTEGRELVIPCRVTSPNITVTLKKFPLDTLIPDGKRIIWDSRKGFIISNATYKEIGLLTCEATVNGHLYKTNYLTHRQTNTIIDVQISTPRPVKLLRGHTLVLNCTATTPLNTRVQMTWSYPDEKNKRASVRRRIDQSNSHANIFYSVLTIDKMQNKDKGLYTCRVRSGPSFKSVNTSVHIYDKAFITVKHRKQQVLETVAGKRSYRLSMKVKAFPSPEVVWLKDGLPATEKSARYLTRGYSLIIKDVTEEDAGNYTILLSIKQSNVFKNLTATLIVNVKPQIYEKAVSSFPDPALYPLGSRQILTCTAYGIPQPTIKWFWHPCNHNHSEARCDFCSNNEESFILDADSNMGNRIESITQRMAIIEGKNKMASTLVVADSRISGIYICIASNKVGTVGRNISFYITDVPNGFHVNLEKMPTEGEDLKLSCTVNKFLYRDVTWILLRTVNNRTMHYSISKQKMAITKEHSITLNLTIMNVSLQDSGTYACRARNVYTGEEILQKKEITIR
B4: 20 kDa-Cys-Flt-1(3) N164C (receptor)
chain: SKLKDPELSLKGTQHIMQAGQTLHLQCRGEAAHKWSLPEMVSKESERLSITKSACGRNGKQFCSTLTLNTAQANHTGFYSCKYLAVPTSKKKETESAIYIFISDTGRPFVEMYSEIPEIIHMTEGRELVIPCRVTSPCITVTLKKFPLDTLIPDGKRIIWDSRKGFIISNATYKEIGLLTCEATVNGHLYKTNYLTHRQTNTIIDVQISTPRPVKLLRGHTLVLNCTATTPLNTRVQMTWSYPDEKNKRASVRRRIDQSNSHANIFYSVLTIDKMQNKDKGLYTCRVRSGPSFKSVNTSVHIYDKAFITVKH
modifications: 20 kDa maleimide-PEG on Cys 164
B5: 20 kDa-Cys-Flt-1(3) N100C (receptor)
chain: B4 chain with N74C, C138N
modifications: 20 kDa maleimide-PEG on Cys 100
B6: sFlt-1(3) H338C (receptor)
chain: B4 chain with C138N, H312C
B7: sFlt-1(3) N164C (receptor)
chain: B4 chain
B8: sFlt-1(3) D31C (receptor)
chain: B4 chain with D5C, C138N
B9: 20 kDa-Cys-Flt-1(3) D31C (receptor)
chain: B4 chain with D5C, C138N
modifications: 20 kDa maleimide-PEG on Cys 31
B10: 20 kDa-Cys-Flt-1(3) N196C (receptor)
chain: B4 chain with C138N, N170C
modifications: 20 kDa maleimide-PEG on Cys 196
B11: 20 kDa-Cys-Flt-1(3) H338C (receptor)
chain: B4 chain with C138N, H312C
modifications: 20 kDa maleimide-PEG on Cys 338
B12: Wild type sFlt-1(3) (receptor)
chain: B4 chain with C138N
B13: sFlt-1(3) N323C (receptor)
chain: B4 chain with C138N, N297C
B14: 20 kDa-Cys-Flt-1(3) N323C (receptor)
chain: B4 chain with C138N, N297C
modifications: 20 kDa maleimide-PEG on Cys 323
B15: sFlt-1(3) N196C (receptor)
chain: B4 chain with C138N, N170C
B16: sFlt-1(3) N100C (receptor)
chain: B4 chain with N74C, C138N

Changes are numbered by the printed parent chain. Names and notes keep the numbering of the source.

Recombinant Human Vascular Endothelial Growth Factor (rhVEGF), sequence (P15692 other isoform, or with tags, fused parts or gaps limits assumed): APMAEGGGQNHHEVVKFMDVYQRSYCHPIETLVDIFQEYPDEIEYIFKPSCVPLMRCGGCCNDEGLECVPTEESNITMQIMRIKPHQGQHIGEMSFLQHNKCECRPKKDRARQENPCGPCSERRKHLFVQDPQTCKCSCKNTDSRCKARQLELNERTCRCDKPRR

This assay addresses Recombinant Human Vascular Endothelial Growth Factor (rhVEGF) (human, UniProt P15692-4 27-191, limits assumed). In words: cell-based or functional assay.
Turning to B1, the “Ave Ec50's (ng/ml); inhibition of VEGF-stimulated HUVEC proliferation, BrdU Cell Proliferation assay” value (“Ave Ec50's (ng/ml); inhibition” for short) turned out to be 43 ng/mL.

B2: the “Ave Ec50's (ng/ml); inhibition” value stood at 54 ng/mL. In the case of B3 it was 76 ng/mL; in that of B4, 75 ng/mL; in that of B5, 66 ng/mL. Regarding B6, the “Ave Ec50's (ng/ml); inhibition” value was determined as 55 ng/mL. B7: the “Ave Ec50's (ng/ml); inhibition” value came to 103 ng/mL. With B8, the “Ave Ec50's (ng/ml); inhibition” value came out at 60 ng/mL. In the case of B9 it was 80 ng/mL; in that of B10, 59 ng/mL; in that of B11, 19 ng/mL. For B12 the value was 36 ng/mL. For B13 the value was 32 ng/mL; for B14, 40 ng/mL; for B15, 88 ng/mL. On to B16, for which the “Ave Ec50's (ng/ml); inhibition” value turned out to be 53 ng/mL.

Source of the values: patent US20090163411A1 (BOLDER BIOTECHNOLOGY, published 2009).
